In patent US20250163127A1:
Where a chain is given by its changes, count along the chain named. In names and notes the source's numbering stands.

Biological target: human PD-1 (human) (UniProt Q15116)
Sequence (Q15116 25-288): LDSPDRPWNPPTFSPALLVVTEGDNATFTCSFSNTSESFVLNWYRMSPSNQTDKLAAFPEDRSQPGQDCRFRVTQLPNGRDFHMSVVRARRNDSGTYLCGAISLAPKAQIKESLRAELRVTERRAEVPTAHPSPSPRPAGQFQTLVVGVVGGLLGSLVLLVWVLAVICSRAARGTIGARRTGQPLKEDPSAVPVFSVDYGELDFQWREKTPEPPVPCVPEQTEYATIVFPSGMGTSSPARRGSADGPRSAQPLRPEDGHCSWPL

B1: variant PD-L2 IgV I13V/Q72H/R76G/I86T Fc fusion (Fc fusion)
chain: LFTVTVPKELYIVEHGSNVTLECNFDTGSHVNLGAITASLQKVENDTSPHRERATLLEEQLPLGKASFHIPHVQVGDEGQYQCIITYGVAWDYKYLTLKVKA
For B1, which IFN gamma levels pg/mL (MLR) is on record?
The IFN gamma levels pg/mL (MLR) was 1950 pg/mL.

B2: variant PD-L2 IgV H15Q/T47A/Q72H/R76G Fc fusion (Fc fusion)
chain: B1 chain with V13I, H15Q, T47A, T86I
Which IFN gamma levels pg/mL (MLR) does the source give for B2 here?
The IFN gamma levels pg/mL (MLR) was 1460 pg/mL.

B3: variant PD-L2 IgV I13V/H15Q/T47A/Q72H/R76G Fc fusion (Fc fusion)
chain: B1 chain with H15Q, T47A, T86I
How did the IFN gamma levels pg/mL (MLR) turn out when B3 was run?
The IFN gamma levels pg/mL (MLR) was 1470 pg/mL.

B4: variant PD-L2 IgV H15Q/E44D/R76G/I85F Fc fusion (Fc fusion)
chain: B1 chain with V13I, H15Q, E44D, H72Q, I85F, T86I
For B4, which IFN gamma levels pg/mL (MLR) is on record?
The IFN gamma levels pg/mL (MLR) was 1390 pg/mL.

B5: variant PD-L2 IgV H15Q/S39I/S67L/V89D Fc fusion (Fc fusion)
chain: B1 chain with V13I, H15Q, S39I, S67L, H72Q, G76R, T86I, V89D
Which IFN gamma levels pg/mL (MLR) does the source give for B5 here?
Its IFN gamma levels pg/mL (MLR) is 1230 pg/mL.

B6: variant PD-L2 IgV H15Q/N32D/S67L/V89D Fc fusion (Fc fusion)
chain: B1 chain with V13I, H15Q, N32D, S67L, H72Q, G76R, T86I, V89D
B6 was tested. Which IFN gamma levels pg/mL (MLR) did it give?
The IFN gamma levels pg/mL (MLR) was 1290 pg/mL.

B7: variant PD-L2 IgV N32D/S67L/V89D Fc fusion (Fc fusion)
chain: B1 chain with V13I, N32D, S67L, H72Q, G76R, T86I, V89D
How did the IFN gamma levels pg/mL (MLR) turn out when B7 was run?
Its IFN gamma levels pg/mL (MLR) is 1190 pg/mL.

B8: variant PD-L2 IgV H15Q/S67L/Q72H/R76G/V89D Fc fusion (Fc fusion)
chain: B1 chain with V13I, H15Q, S67L, T86I, V89D
For B8, which IFN gamma levels pg/mL (MLR) is on record?
The IFN gamma levels pg/mL (MLR) was 1060 pg/mL.

B9: variant PD-L2 IgV H15Q/Q72H/Q74R/R76G/I86T Fc fusion (Fc fusion)
chain: B1 chain with V13I, H15Q, Q74R
B9 was tested. Which IFN gamma levels pg/mL (MLR) did it give?
The IFN gamma levels pg/mL (MLR) was 934 pg/mL.

B10: variant PD-L2 IgV I13V/H15Q/S39I/E44D/S67L Fc fusion (Fc fusion)
chain: B1 chain with H15Q, S39I, E44D, S67L, H72Q, G76R, T86I
Which IFN gamma levels pg/mL (MLR) does the source give for B10 here?
Its IFN gamma levels pg/mL (MLR) is 1260 pg/mL.

B11: variant PD-L2 IgV E44D/S67L/Q72H/Q82R/V89D Fc fusion (Fc fusion)
chain: B1 chain with V13I, E44D, S67L, G76R, Q82R, T86I, V89D
Which IFN gamma levels pg/mL (MLR) does the source give for B11 here?
Its IFN gamma levels pg/mL (MLR) is 1280 pg/mL.

B12: variant PD-L2 IgV I13V/H15Q/Q82R Fc fusion (Fc fusion)
chain: B1 chain with H15Q, H72Q, G76R, Q82R, T86I
B12 was tested. Which IFN gamma levels pg/mL (MLR) did it give?
Its IFN gamma levels pg/mL (MLR) is 1430 pg/mL.

B13: variant PD-L2 IgV I13V/H15Q/V89D Fc fusion (Fc fusion)
chain: B1 chain with H15Q, H72Q, G76R, T86I, V89D
B13 was tested. Which IFN gamma levels pg/mL (MLR) did it give?
The IFN gamma levels pg/mL (MLR) was 1120 pg/mL.

B14: variant PD-L2 IgV I13V/S67L/Q82R/V89D Fc fusion (Fc fusion)
chain: B1 chain with S67L, H72Q, G76R, Q82R, T86I, V89D
How did the IFN gamma levels pg/mL (MLR) turn out when B14 was run?
The IFN gamma levels pg/mL (MLR) was 1370 pg/mL.

B15: variant PD-L2 IgV I13V/H15Q/Q82R/V89D Fc fusion (Fc fusion)
chain: B1 chain with H15Q, H72Q, G76R, Q82R, T86I, V89D
Which IFN gamma levels pg/mL (MLR) does the source give for B15 here?
Its IFN gamma levels pg/mL (MLR) is 1600 pg/mL.

B16: variant PD-L2 IgV H15Q/V31M/S67L/Q82R/V89D Fc fusion (Fc fusion)
chain: B1 chain with V13I, H15Q, V31M, S67L, H72Q, G76R, Q82R, T86I, V89D
How did the IFN gamma levels pg/mL (MLR) turn out when B16 was run?
The IFN gamma levels pg/mL (MLR) was 1210 pg/mL.

B17: variant PD-L2 IgV I13V/H15Q/T47A/Q82R Fc fusion (Fc fusion)
chain: B1 chain with H15Q, T47A, H72Q, G76R, Q82R, T86I
For B17, which IFN gamma levels pg/mL (MLR) is on record?
The IFN gamma levels pg/mL (MLR) was 1700 pg/mL.

B18: variant PD-L2 IgV I13V/H15Q/V31A/N45S/Q82R/V89D Fc fusion (Fc fusion)
chain: B1 chain with H15Q, V31A, N45S, H72Q, G76R, Q82R, T86I, V89D
How did the IFN gamma levels pg/mL (MLR) turn out when B18 was run?
The IFN gamma levels pg/mL (MLR) was 1720 pg/mL.

B19: variant PD-L2 IgV I13V/H15Q/T47A/H69L/R76G/V89D Fc fusion (Fc fusion)
chain: B1 chain with H15Q, T47A, H69L, H72Q, T86I, V89D
How did the IFN gamma levels pg/mL (MLR) turn out when B19 was run?
The IFN gamma levels pg/mL (MLR) was 1080 pg/mL.

B20: variant PD-L2 IgV I12V/I13V/H15Q/T47A/Q82R/V89D Fc fusion (Fc fusion)
chain: B1 chain with I12V, H15Q, T47A, H72Q, G76R, Q82R, T86I, V89D
For B20, which IFN gamma levels pg/mL (MLR) is on record?
Its IFN gamma levels pg/mL (MLR) is 1530 pg/mL.

B21: variant PD-L2 IgV I13V/H15Q/R76G/D77N/Q82R/V89D Fc fusion (Fc fusion)
chain: B1 chain with H15Q, H72Q, D77N, Q82R, T86I, V89D
B21 was tested. Which IFN gamma levels pg/mL (MLR) did it give?
The IFN gamma levels pg/mL (MLR) was 1190 pg/mL.

B22: variant PD-L2 IgV I13V/H15Q/I36V/T47A/S67L/V89D Fc fusion (Fc fusion)
chain: B1 chain with H15Q, I36V, T47A, S67L, H72Q, G76R, T86I, V89D
Which IFN gamma levels pg/mL (MLR) does the source give for B22 here?
Its IFN gamma levels pg/mL (MLR) is 1360 pg/mL.

B23: variant PD-L2 IgV H15Q/L33P/T47A/S67L/P71S/V89D Fc fusion (Fc fusion)
chain: B1 chain with V13I, H15Q, L33P, T47A, S67L, P71S, H72Q, G76R, T86I, V89D
B23 was tested. Which IFN gamma levels pg/mL (MLR) did it give?
The IFN gamma levels pg/mL (MLR) was 1290 pg/mL.

B24: variant PD-L2 IgV I13V/H15Q/Q72H/R76G/I86T Fc fusion (Fc fusion)
chain: B1 chain with H15Q
How did the IFN gamma levels pg/mL (MLR) turn out when B24 was run?
Its IFN gamma levels pg/mL (MLR) is 1220 pg/mL.

B25: variant PD-L2 IgV H15Q/T47A/S67L/Q82R/V89D Fc fusion (Fc fusion)
chain: B1 chain with V13I, H15Q, T47A, S67L, H72Q, G76R, Q82R, T86I, V89D
B25 was tested. Which IFN gamma levels pg/mL (MLR) did it give?
Its IFN gamma levels pg/mL (MLR) is 1200 pg/mL.
